Data taken from the nanobody polyreactivity screen of Harvey et al. (2022).

Test: yeast display, Sf9 membrane polyspecificity reagent, FACS + sequencing; frameworks hold sequencing errors
Outline: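 A nanobody's polyreactivity label depends on the gate it was sorted from. Yeast display cells were stained with 10% biotinylated, detergent-solubilized Sf9 membrane reagent for 1 hour at 4 °C, enriched on streptavidin microbeads and sorted by FACS. The low and high (top ~1%) gates were set on anti-HA fluorescence for expression and streptavidin fluorescence for reagent binding.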

| Sequence | polyreactivity (PSR sort gate) |
| --- | --- |
| QVQLVDSGGRLVHAGGSLRLSCAASGRTIYRNAMGLYRQAPGKERELVAAISSDDSTNYSDSVKGRFTISRDNAKNTVYFQMNSLKPEDTAVYYCNADYYYGYDYDYWGQGSQVTVSS | low polyreactivity |
| QVQLVDSGRGLFQAGGSLRLSCAASGRTSSSNVMGWYRQAPGKERELVASINEGGNTYYADSVKGRFTISRDNATNTVYLQMNSLKPEDTAVYYCATEESGYSSWYGYGYSYDYWGQGTQVTVSS | low polyreactivity |
| QVQLVDSGRGLVQAGGSLRLSCAASGSTFRWNAMGWYRQAPGKERELVAAIDNSGTSTYYADSVKGRFTISRDNAKNTVYLQMNSLKPDDTAVYYCNVRISNTAYRYPTFDYWGQGTQVTVSS | low polyreactivity |
| QVQLVDSVGGLVKAGCSLRLSCAASGSTLPVNAKGCYRQAPGKERELVAAINRDGSTIYADSVKRPFTISRDIAKNTVYLKMNRLKPEDTAVYYCAADGFGYPGKRYDFWGQGTQVTVSS | low polyreactivity |
| QVQLVDSVGGLVQAGGSLRLSCAASGSIFGYYAMAWYRQAPGKERELFASITRSGDTTYYADSVKGRFTISRDNANNTVFLQMNSLKQEDTAVSYCAARRWRWYYDGFVRMDYWGQGTQVTVSS | high polyreactivity |
| QVQLVEACGGLVQAGGSLRLICAASGNIFAYNAMGWYRQAPGKERELVAAISVIGGTTYYADSVKGRFTISRDNAKNTVYLQMNSLKPEDTAVYSCSVDSVQYGGGYERLHELYYWGQGTQVTVSS | low polyreactivity |
| QVQLVEAGGCLVHAGGSLRLSCAASGRIFVGNAMGWYRQAPGKERELVAAINNGGTTYYADSVKGRFTIARDNGKNTVYLQMNSLKPEDTAVYHCAATPYRGTRSYLIGELDYWGQGTQVTVSS | low polyreactivity |
| QVQLVEAGGGLVQAGGRLRLSCAASGRIFGRTAMGWYRQAPGKERELGAAIRRSSASTYYADSVKGRFTISRDNAKNTFYLQMNSLKPEDTAVYYCATQSYSYYGYRYRYAAFDYWGQGTQVTVSS | high polyreactivity |
| QVQLVEAGGGLVQAGGRLRLSSAASGNIFIWYALGWYRQAPGKERELVAAIRWSGGGTYYADSVKGRFTISRDNAKNTVYFQMNSLKPEDTAVYYCAAESSASWYNFWGYEYWGQGTQVTVSS | high polyreactivity |
| QVQLVEAGGGLVQAGGSLRFSCAASGSLFRWYAMGWYRQAPGKERELVAAINRGGDSTYYADSVKGRFTISRDNAKNTVYLQMNSLKPEDTAVYYCNAVSSWKLLYSSYDSWGQGTQVTVSS | high polyreactivity |
| QVQLVEAGGGLVQAGGSLRLIFASSGSTLYLYVMVWYRQAPGKESELVDVISSSSGRTYYADSVKGRFTISRDNAKNSVYLQMNSLKPEDTAVYYCAADNYVGYHWYNYWGQGTQVTVSS | high polyreactivity |
| QVQLVEAGGGLVQAGGSLRLSCAASGRIFVYYTMGWYRQAPGKERELVAAIIGGGSTNYADSVKGRFTISRDNAKNTVYLQMNSLKPEDTAVYDCAAVRYRYSYVSHSRIYDYWGQGTQVTVSS | high polyreactivity |
| QVQLVEAGGGLVQAGGSLRLSCAASGRIFYYYAMGWYSQAPGKEREFVAAIRISGGSKNYADSVKGRFTISRDNAKNNVYLQMNSLKPEETAVYYSAARSKYSGIRRAYDYWGQGTQVTVSS | high polyreactivity |
| QVQLVEAGGGLVQAGGSLRLSCAASGRIIIYNAMGWYRQPPGKERELVAAISSTGGSTNYADSVKGRFTISRDNAMNSVYLQMNSLKPEDTAVYYCNALPGRASLRYNYWGQGTQVTVSS | high polyreactivity |
| QVQLVEAGGGLVQAGGSLRLSCAASGRISYTYAMGWYRQAPGNERELVAAITDGGSTTYADSVKGRFTISRDNAKNTVYLQMNSLKPEDTAVYYCNADTDSAKSPAYYYWGQGTQVTVSS | low polyreactivity |
| QVQLVEAGGGLVQAGGSLRLSCGASGRIFQSNAMGGYRLAPGKERELVAAISKSGGSTYYADSVKGRFTISRDNAKNTVYLQMNSLKPEDPAVYYCAAYPPRRMYYWGQGTQVTVSS | high polyreactivity |

| Sequence | polyreactivity (PSR sort gate) |
| --- | --- |
| QVQLVEAGGGLVQAGGSLRLSGAASGYTFGGNAMGWYRPAPGKERELVAGITWTGGTTYYADSVKGRFTISRDNAKNTVYLQMNSLKPEETAVYYCNASLDSQDGDYWGQGTQVTVSS | low polyreactivity |
| QVQLVEAGGGLVQAGVSLRLSCAASGIIFGSYAMGWYRQAPGKERELVATISYDGGSTYYADSVKGRFTISRDNAKNTVYLQMKSLKPDDTAVSYCAAVYQSWFGLRSYYYWGQGTQVTVSS | high polyreactivity |
| QVQLVEAGGGLVQAGVSLRLSCAASGLTFVPNAMGWYRQAPGKERELVAAISNNGGRTYYADSVKGRFTISRDNAKNTVYLQMNSLKPEDTAVYYCAKYLSPGERHSYDYWGQGTQVTVSS | high polyreactivity |
| QVQLVEAGRGLVHAGGSLRLSCDPSGLTFSRYAMGWYRPAPGKESELVPAISSRGGTTYYADSVKGRFTISRDYAKNTVYLQMYSMKPEDTAVYYCAAGYITWGSGNWVVTPYDVWGQGTQVTVSS | high polyreactivity |
| QVQLVEKGGGLVQAGGSLRLICAASGYIIWPNAMGWYRQAPGKERELVASITRAGSTNYADSVKGRFTISRDNAKNTVYLQMNSLKPEDTAVYYSAAYFWGGYNYWGQGTQVTVSS | low polyreactivity |
| QVQLVEKRGGLVQAGGILRLSCAASGCILVGYAMGWSRQAPGKERELVAAINYSGGSTNYADSVKGRFTISLDNAKNTVYLQMISLKPEDTAVYYCAARSTARYGYWGQGTQVTVSS | low polyreactivity |
| QVQLVELGGGLVQAGGSLRLSCAASGGTFPRYAMGWYRQAPGKERELVAAITSRGDRTYYADSVKGRFTISRDNAKNTVYLQMNSLKPEDTAVYYCAARLYYSSYGRVKMDYWGQGTQVTVSS | high polyreactivity |
| QVQLVESAAGLVQAGGSLRLSCAASGFIFQYYAMGWYRQAPGKERELVAAINRGGGTHYADSVKGRFTISRDNAKNTVYLQMNSLKREDTAVYYCNKVYYWPGSRPSRYEYWGQGTQVTVSS | low polyreactivity |
| QVQLVESAAGLVQAGGSLRLSCDASGSIFYSYAMGWYRQAPGKERELVAAITDSGDSTYYADCVKGRFTISRDNAKNTVYLQMNSLKPEDTAVYYCAAGFYPYYYWGQGTQVTVSS | low polyreactivity |
| QVQLVESAARLVQAGASLPLSCPASGRIFYTNAMGCYRQAPGKERELVAVMSWGGDTTYYADSVKGRFTISRDNATNTVYLQMNSLKPEDSAVYYCNAYSGPTYEIYDSWGLGTQVTVSS | low polyreactivity |
| QVQLVESAGCLVQAAASLRLSCSASGRTFYNYAMGWYRQAPGKEWELVASIRKNGGSTYYADSVKGRFTISRDNAKNTVYFQMNRLKPEDTAVYYCAAGRTVVTGSYYWGQGTQVTVSS | high polyreactivity |
| QVQLVESAGCLVQAGASLRLSCAASGRIISRNAMGWYRQAPGKERELVAAITWRGGSTYYADSVKGRFTISRDNAKNTVYLQMNSLKPEDTAVYYCNRDYRQYGYAYSGRYYWGQGTQVTVSS | high polyreactivity |
| QVQLVESAGCLVQAGGSLRLSCAASGSTIYRYAMGWYRQAPGKERELVAAITRTGGSTYADSVKGRFTISRDNAKNSVFLQMNSLKPEDTAVFYCAVQRYYVSSISPFYYWGQGTQVTVSS | low polyreactivity |
| QVQLVESAGGFVQAGGSLRLSCAASGRIYQQNGLRWYRQAPGKERELVAGINSGVGTNYADSVKGRFTISRDNAKNTVYLQMNSLKPEDTAVFYCAKSQPSYSGDRDYWGQGTQVTVSS | low polyreactivity |
| QVQLVESAGGFVQAGGSLRLSCAASGSIFTINAMGWYTQAPGKERELVAGIRWRGGSTYYADSVKGRVTISRDNAKNTVYFQMNSLKPEDTAVYYCNTRCLIRKFDYWGQGTQVTVSS | high polyreactivity |
